The results in this text go back to patent US20250000973A1 (Novartis, published 2025).

This experiment deals with T1, BCMA (TNFRSF17), human plasma membrane protein array (human, UniProt Q02223 1-184).
T1 construct: also called B-cell maturation antigen
T1 sequence (looked up): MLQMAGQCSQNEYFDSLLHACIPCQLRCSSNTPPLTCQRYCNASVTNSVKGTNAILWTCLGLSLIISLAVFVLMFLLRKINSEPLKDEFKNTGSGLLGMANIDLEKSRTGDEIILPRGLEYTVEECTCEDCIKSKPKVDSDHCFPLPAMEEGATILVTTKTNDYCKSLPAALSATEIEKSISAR
The experiment can be described thus: commercial human plasma membrane protein array.

B1: anti-human BCMA single chain antibody variable fragment (scFv) (PI61) (scFv)
scFv: QVQLQESGGGVVQPGRSLRLSCAASGFTFSSYGMHWVRQAPGKGLEWVAVISYDGSNKYYADSVKGRFTISRDNSKNTLYLQMNSLRAEDTAVYYCGGSGYALHDDYYGLDVWGQGTLVTVSSGGGGSGGGGSGGGGSQSALTQPASVSGSPGQSITISCTGTSSDVGGYNYVSWYQQHPGKAPKLMIYDVSNRPSGVSNRFSGSKSGNTASLTISGLQAEDEADYYCSSYTSSSTLYVFGSGTKVTVL
notes: also called PI61 scFv
For B1, the binding result was “binds”.
